Source: paper PMC10718521, “Complexity of αvβ6-integrin targeting RGD peptide trimers: emergence of non-specific binding by synergistic interaction” (RSC Medicinal Chemistry, 2023)

How the values were obtained:
[1] = format: physicochemical; conditions: pH 7.4
Method: The trimers were labeled with ^68Ga for biodistribution and small-animal PET experiments employing a fully automated method.[39] Non-radioactive reference compounds were obtained by complexation of equimolar amounts of ^natGa^3+ in form of the aq. chloride solution.[39] The polarity of the ^68Ga or ^natGa^3+ containing conjugates, respectively, was assessed by two established proxies, namely the n-octanol/water distribution coefficient at pH 7.4, log D7.4, and the retention time tR on a reverse-phase HPLC column with a suitable liquid-phase gradient (10–50% acetonitrile in water with 0.1% trifluoroacetic acid) (see Fig. 2a). […] A measurable decrease of the log D7.4 was only observed for ≥3 Tyr. […]
(§1) Unless otherwise noted, the materials and the instrumentation used (analytical and preparative HPLC, ESI-MS, gamma counter, centrifuge), and the experimental procedures (^68Ga radiolabeling and radio-TLC for quality control, determination of log D7.4, cultivation of H2009 human lung adenocarcinoma cells, generation of tumor xenografts in CB17 SCID mice, small-animal PET, and biodistribution) were described before.[19] All animal experiments have been carried out according to applicable law and institutional guidelines of Technical University of Munich, and were approved by the responsible local authority (Regierung von Oberbayern). The H2009 cells were regularly authenticated and tested for mycoplasma contamination. The affinities of the pentynoic amide functionalized peptides were determined employing a well-established ELISA protocol on immobilized integrins.[36] TRAP-triazide,[38]FF (previously termed AvB6),[32] and YY (also referred to as Tyr2-alkyne)[33] were synthesized as described previously. RP-HPLC for assessment of compound polarity was done on a 150 × 4.6 mm ReproSil-Pur 120 C18-AQ 5 μm column, with a flow of 0.75 mL min^−1 and a gradient of 10–50% MeCN in water, both containing 0.1% trifluoroacetic acid, within 15 min. The required ^natGa-complexes of the peptide trimers were synthesized by reaction with equimolar amounts of aq. GaCl3 as described.[19]

in vivo = experiment: in vivo; set-up: species or system mice; conditions: CB17 SCID, mouse, total radioactivity
Description: The biodistribution of all ^68Ga-labeled peptide trimers was investigated in severe combined immunodeficiency (SCID) mice bearing subcutaneous xenografts of the αvβ6-integrin expressing human lung adenocarcinoma cell line H2009 on their right shoulders.
as §1

[2] = tumor/organ ratio Heart (myocard)
[3] = tumor/organ ratio Large intestine (empty)
[4] = tumor/organ ratio Small intestine (empty)
[5] = tumor/organ ratio Stomach (empty)

| Structure (SMILES) | logD [1] | tissue uptake at 1.5 h (in vivo; Adrenals uptake) | tissue uptake at 1.5 h (in vivo; Blood uptake) | tissue uptake at 1.5 h (in vivo; Heart (myocard) uptake) | tissue uptake at 1.5 h (in vivo; Kidneys uptake) | tissue uptake at 1.5 h (in vivo; Large intestine (empty) uptake) | tissue uptake at 1.5 h (in vivo; Liver uptake) | tissue uptake at 1.5 h (in vivo; Lung uptake) | tissue uptake at 1.5 h (in vivo; Muscle uptake) | tissue uptake at 1.5 h (in vivo; Pancreas uptake) | tissue uptake at 1.5 h (in vivo; Small intestine (empty) uptake) | tissue uptake at 1.5 h (in vivo; Spleen uptake) | tissue uptake at 1.5 h (in vivo; Stomach (empty) uptake) | tissue uptake at 1.5 h (in vivo; Tumor H2009 uptake) | tissue to tissue ratio at 1.5 h (in vivo; tumor/organ ratio Adrenals) | tissue to tissue ratio at 1.5 h (in vivo; tumor/organ ratio Blood) | tissue to tissue ratio at 1.5 h (in vivo; [2]) | tissue to tissue ratio at 1.5 h (in vivo; tumor/organ ratio Kidneys) | tissue to tissue ratio at 1.5 h (in vivo; [3]) | tissue to tissue ratio at 1.5 h (in vivo; tumor/organ ratio Liver) | further results |
| --- | --- | --- | --- | --- | --- | --- | --- | --- | --- | --- | --- | --- | --- | --- | --- | --- | --- | --- | --- | --- | --- |
| CC(C)C[C@@H]1NC(=O)[C@H](CC(=O)O)NC(=O)CNC(=O)[C@H](CCCNC(=N)N)NC(=O)[C@H](Cc2ccccc2)NC(=O)[C@H](CCCCNC(=O)CCc2cn(CCCNC(=O)CCP(=O)(O)CN3CCN(CP(=O)(O)CCC(=O)NCCCn4cc(CCC(=O)NCCCC[C@H]5C(=O)N[C@@H](Cc6ccccc6)C(=O)N[C@@H](CCCNC(=N)N)C(=O)NCC(=O)N[C@@H](CC(=O)O)C(=O)N[C@@H](CC(C)C)C(=O)N[C@@H](C)C(=O)N[C@@H](Cc6ccc(O)cc6)C(=O)N6CCC[C@@H]6C(=O)N5C)nn4)CCN(CP(=O)(O)CCC(=O)NCCCn4cc(CCC(=O)NCCCC[C@H]5C(=O)N[C@@H](Cc6ccccc6)C(=O)N[C@@H](CCCNC(=N)N)C(=O)NCC(=O)N[C@@H](CC(=O)O)C(=O)N[C@@H](CC(C)C)C(=O)N[C@@H](C)C(=O)N[C@@H](Cc6ccc(O)cc6)C(=O)N6CCC[C@@H]6C(=O)N5C)nn4)CC3)nn2)N(C)C(=O)[C@H]2CCCN2C(=O)[C@H](Cc2ccc(O)cc2)NC(=O)[C@H](C)NC1=O (68Ga complex, metal not drawn) [Y3F] | -1.8 ± 0.1 | 0.77 ± 0.42 %ID/g | 0.96 ± 0.3 %ID/g | 0.62 ± 0.15 %ID/g | 71.1 ± 15 %ID/g | 5.15 ± 2.63 %ID/g | 0.95 ± 0.22 %ID/g | 4.83 ± 1.54 %ID/g | 0.66 ± 0.25 %ID/g | 0.34 ± 0.11 %ID/g | 2.6 ± 0.9 %ID/g | 2.38 ± 0.31 %ID/g | 5.64 ± 1.94 %ID/g | 6.69 ± 1.21 %ID/g | 10.3 ± 3.8 | 7.2 ± 1.1 | 10.9 ± 0.8 | 0.1 | 1.6 ± 0.7 | 7.1 ± 0.7 | tissue to tissue ratio at 1.5 h (in vivo; tumor/organ ratio Lung): 1.5 ± 0.3; tissue to tissue ratio at 1.5 h (in vivo; tumor/organ ratio Muscle): 10.9 ± 3; tissue to tissue ratio at 1.5 h (in vivo; tumor/organ ratio Pancreas): 20.4 ± 3.1; tissue to tissue ratio at 1.5 h (in vivo; [4]): 2.7 ± 0.5; tissue to tissue ratio at 1.5 h (in vivo; tumor/organ ratio Spleen): 2.8 ± 0.4; tissue to tissue ratio at 1.5 h (in vivo; [5]): 1.3 ± 0.3 |
| CC(C)C[C@@H]1NC(=O)[C@H](CC(=O)O)NC(=O)CNC(=O)[C@H](CCCNC(=N)N)NC(=O)[C@H](Cc2ccc(O)cc2)NC(=O)[C@H](CCCCNC(=O)CCc2cn(CCCNC(=O)CCP(=O)(O)CN3CCN(CP(=O)(O)CCC(=O)NCCCn4cc(CCC(=O)NCCCC[C@H]5C(=O)N[C@@H](Cc6ccc(O)cc6)C(=O)N[C@@H](CCCNC(=N)N)C(=O)NCC(=O)N[C@@H](CC(=O)O)C(=O)N[C@@H](CC(C)C)C(=O)N[C@@H](C)C(=O)N[C@@H](Cc6ccccc6)C(=O)N6CCC[C@@H]6C(=O)N5C)nn4)CCN(CP(=O)(O)CCC(=O)NCCCn4cc(CCC(=O)NCCCC[C@H]5C(=O)N[C@@H](Cc6ccc(O)cc6)C(=O)N[C@@H](CCCNC(=N)N)C(=O)NCC(=O)N[C@@H](CC(=O)O)C(=O)N[C@@H](CC(C)C)C(=O)N[C@@H](C)C(=O)N[C@@H](Cc6ccccc6)C(=O)N6CCC[C@@H]6C(=O)N5C)nn4)CC3)nn2)N(C)C(=O)[C@H]2CCCN2C(=O)[C@H](Cc2ccccc2)NC(=O)[C@H](C)NC1=O (68Ga complex, metal not drawn) [Y3Y] | -1.7 ± 0.1 | 0.81 ± 0.41 %ID/g | 1.13 ± 0.25 %ID/g | 0.66 ± 0.16 %ID/g | 72.6 ± 5.25 %ID/g | 3.94 ± 1.85 %ID/g | 1.23 ± 0.19 %ID/g | 4.96 ± 0.48 %ID/g | 0.51 ± 0.11 %ID/g | 0.33 ± 0.07 %ID/g | 1.69 ± 0.2 %ID/g | 3.82 ± 0.82 %ID/g | 4.03 ± 1.36 %ID/g | 5.92 ± 2.07 %ID/g | 6.7 ± 3 | 4.9 ± 0.5 | 8.5 ± 1.1 | 0.1 | 1.8 ± 1.1 | 4.4 ± 0.7 | tissue to tissue ratio at 1.5 h (in vivo; tumor/organ ratio Lung): 1 ± 0.2; tissue to tissue ratio at 1.5 h (in vivo; tumor/organ ratio Muscle): 10.7 ± 1.1; tissue to tissue ratio at 1.5 h (in vivo; tumor/organ ratio Pancreas): 17 ± 1.4; tissue to tissue ratio at 1.5 h (in vivo; [4]): 3.2 ± 0.6; tissue to tissue ratio at 1.5 h (in vivo; tumor/organ ratio Spleen): 1.4 ± 0.2; tissue to tissue ratio at 1.5 h (in vivo; [5]): 1.5 ± 0.7 |
| CC(C)C[C@@H]1NC(=O)[C@H](CC(=O)O)NC(=O)CNC(=O)[C@H](CCCNC(=N)N)NC(=O)[C@H](Cc2ccccc2)NC(=O)[C@H](CCCCNC(=O)CCc2cn(CCCNC(=O)CCP(=O)(O)CN3CCN(CP(=O)(O)CCC(=O)NCCCn4cc(CCC(=O)NCCCC[C@H]5C(=O)N[C@@H](Cc6ccc(O)cc6)C(=O)N[C@@H](CCCNC(=N)N)C(=O)NCC(=O)N[C@@H](CC(=O)O)C(=O)N[C@@H](CC(C)C)C(=O)N[C@@H](C)C(=O)N[C@@H](Cc6ccc(O)cc6)C(=O)N6CCC[C@@H]6C(=O)N5C)nn4)CCN(CP(=O)(O)CCC(=O)NCCCn4cc(CCC(=O)NCCCC[C@H]5C(=O)N[C@@H](Cc6ccc(O)cc6)C(=O)N[C@@H](CCCNC(=N)N)C(=O)NCC(=O)N[C@@H](CC(=O)O)C(=O)N[C@@H](CC(C)C)C(=O)N[C@@H](C)C(=O)N[C@@H](Cc6ccc(O)cc6)C(=O)N6CCC[C@@H]6C(=O)N5C)nn4)CC3)nn2)N(C)C(=O)[C@H]2CCCN2C(=O)[C@H](Cc2ccccc2)NC(=O)[C@H](C)NC1=O (68Ga complex, metal not drawn) [Y4] | -1.9 ± 0.1 | 0.71 ± 0.37 %ID/g | 0.86 ± 0.26 %ID/g | 0.47 ± 0.12 %ID/g | 91.3 ± 8.28 %ID/g | 2.29 ± 0.59 %ID/g | 0.93 ± 0.14 %ID/g | 3.22 ± 0.63 %ID/g | 1.41 ± 0.06 %ID/g | 0.28 ± 0.08 %ID/g | 1.35 ± 0.53 %ID/g | 1.57 ± 0.57 %ID/g | 4.92 ± 1.06 %ID/g | 4.47 ± 0.96 %ID/g | 7.1 ± 1.9 | 5.5 ± 1.4 | 9.6 ± 1.3 | 0.1 | 2.1 ± 0.6 | 5 ± 0.5 | tissue to tissue ratio at 1.5 h (in vivo; tumor/organ ratio Lung): 1.4 ± 0.2; tissue to tissue ratio at 1.5 h (in vivo; tumor/organ ratio Muscle): 12.2 ± 2.8; tissue to tissue ratio at 1.5 h (in vivo; tumor/organ ratio Pancreas): 16.5 ± 1.6; tissue to tissue ratio at 1.5 h (in vivo; [4]): 3.7 ± 1; tissue to tissue ratio at 1.5 h (in vivo; tumor/organ ratio Spleen): 3 ± 0.7; tissue to tissue ratio at 1.5 h (in vivo; [5]): 1 ± 0.3 |
| CC(C)C[C@@H]1NC(=O)[C@H](CC(=O)O)NC(=O)CNC(=O)[C@H](CCCNC(=N)N)NC(=O)[C@H](Cc2ccc(O)cc2)NC(=O)[C@H](CCCCNC(=O)CCc2cn(CCCNC(=O)CCP(=O)(O)CN3CCN(CP(=O)(O)CCC(=O)NCCCn4cc(CCC(=O)NCCCC[C@H]5C(=O)N[C@@H](Cc6ccc(O)cc6)C(=O)N[C@@H](CCCNC(=N)N)C(=O)NCC(=O)N[C@@H](CC(=O)O)C(=O)N[C@@H](CC(C)C)C(=O)N[C@@H](C)C(=O)N[C@@H](Cc6ccc(O)cc6)C(=O)N6CCC[C@@H]6C(=O)N5C)nn4)CCN(CP(=O)(O)CCC(=O)NCCCn4cc(CCC(=O)NCCCC[C@H]5C(=O)N[C@@H](Cc6ccc(O)cc6)C(=O)N[C@@H](CCCNC(=N)N)C(=O)NCC(=O)N[C@@H](CC(=O)O)C(=O)N[C@@H](CC(C)C)C(=O)N[C@@H](C)C(=O)N[C@@H](Cc6ccc(O)cc6)C(=O)N6CCC[C@@H]6C(=O)N5C)nn4)CC3)nn2)N(C)C(=O)[C@H]2CCCN2C(=O)[C@H](Cc2ccc(O)cc2)NC(=O)[C@H](C)NC1=O (68Ga complex, metal not drawn) [Y6] | -2.1 ± 0.1 | 0.5 ± 0.11 %ID/g | 1.03 ± 0.21 %ID/g | 0.59 ± 0.11 %ID/g | 95.7 ± 12.6 %ID/g | 4.36 ± 0.77 %ID/g | 0.73 ± 0.11 %ID/g | 4.47 ± 1.12 %ID/g | 0.68 ± 0.18 %ID/g | 0.27 ± 0.04 %ID/g | 2.72 ± 1.15 %ID/g | 3.91 ± 0.91 %ID/g | 6.24 ± 1.24 %ID/g | 7.52 ± 1.21 %ID/g |  |  |  |  |  |  |  |
